Test results published in patent US20140193357A1.
Several values for one entry are separate records, joined by “and”; a condition that tells them apart may be missing. Equal entries are not always repeated.

Target: T1, G-CSF receptor on the surface of murine myeloid leukemia cell line G-NFS-60 (murine (cell line G-NFS-60)) (UniProt P40223)
T1 sequence (looked up): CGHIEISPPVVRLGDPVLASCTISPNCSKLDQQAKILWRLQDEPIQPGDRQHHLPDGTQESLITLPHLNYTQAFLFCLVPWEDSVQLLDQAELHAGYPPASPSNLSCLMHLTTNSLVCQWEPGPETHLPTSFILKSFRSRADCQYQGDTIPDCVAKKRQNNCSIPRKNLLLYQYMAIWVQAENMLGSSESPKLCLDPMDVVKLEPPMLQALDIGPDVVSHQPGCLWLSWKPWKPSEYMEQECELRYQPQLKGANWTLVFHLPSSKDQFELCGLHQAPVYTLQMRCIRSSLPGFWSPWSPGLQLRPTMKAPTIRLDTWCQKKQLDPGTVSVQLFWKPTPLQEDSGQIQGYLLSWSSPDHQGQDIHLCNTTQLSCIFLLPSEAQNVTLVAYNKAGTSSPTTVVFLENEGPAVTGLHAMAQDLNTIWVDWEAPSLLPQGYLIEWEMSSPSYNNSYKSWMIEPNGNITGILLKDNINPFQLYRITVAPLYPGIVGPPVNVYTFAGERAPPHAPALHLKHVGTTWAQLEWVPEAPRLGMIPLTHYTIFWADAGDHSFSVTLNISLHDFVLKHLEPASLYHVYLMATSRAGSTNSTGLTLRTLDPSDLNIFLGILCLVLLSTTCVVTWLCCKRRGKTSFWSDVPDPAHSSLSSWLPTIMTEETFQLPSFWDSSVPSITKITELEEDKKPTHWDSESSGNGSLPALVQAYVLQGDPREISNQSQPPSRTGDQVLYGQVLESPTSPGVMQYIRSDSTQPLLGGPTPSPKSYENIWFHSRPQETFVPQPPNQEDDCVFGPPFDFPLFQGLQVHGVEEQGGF
Assay: cell-based or functional assay

Monomer G-CSF (from UniProt P09919 31-204) (ligand)
Biologic activity (proliferation of G-NFS-60 cells, MTS dye): 1e+08 IU/mg and 6e+07 IU/ml
